{
  "source": "patent US7670806B2",
  "about": "“ADP-ribosyl acceptor hydrolase 3 (ARH3) polypeptides and methods of use” (The United States of America as represented by the …, priority 2005, dated 2010)",
  "molecules": {"B1": {"name": "ARH3 (D77N/D78N): human ARH3 mutant with dual amino acid replacement D77N/D78N (protein)", "chain": "MAAAAMAAAAGGGAGAARSLSRFRGCLAGALLGDCVGSFYEAHDTVDLTSVLRHVQSLEPDPGTPGSERTEALYYTNNTAMARALVQSLLAKEAFDEVDMAHRFAQEYKKDPDRGYGAGVVTVFKKLLNPKCRDVFEPARAQFNGKGSYGNGGAMRVAGISLAYSSVQDVQKFARLSAQLTHASSLGYNGAILQALAVHLALQGESSSEHFLKQLLGHMEDLEGDAQSVLDARELGMEERPYSSRLKKIGELLDQASVTREEVVSELGNGIAAFESVPTAIYCFLRCMEPDPEIPSAFNSLQRTLIYSISLGGDTDTIATMAGAIAGAYYGMDQVPESWQQSCEGYEETDILAQSLHRVFQKS"}},
  "key": {"[1]": {"assay": "ADP-ribose binding assay", "conditions": "1 μM ARH3, 3 μM [14C]ADP-ribose, 30° C., 16 h", "procedure": "ADP-ribose binding assay. [^14C]ADP-ribose was generated by incubation overnight at 30° C. of 80 μM (10 μCi) [adenine-U-^14C]NAD with 50 μl of RT6.2 solution (5 nmol/h NADase activity; gift from Dr. Sunhee Park, NHLBI, National Institutes of Health, Bethesda, Md.) in 250 μl of 50 mM potassium phosphate, pH 7.5, and purified by HPLC using Zorbax Sax column as described above. [^14C]ADP-ribose, eluted at 40 min, was stored at −20° C.\nTo assess protein binding, 1 μM human wild type or D77N/D78N mutant ARH3 was incubated (30° C., 16 h) with 3 μM [^14C]ADP-ribose in 50 mM potassium phosphate buffer, pH 7.5, without or with 10 mM MgCl2, and/or 5 mM DTT (total volume 100 μl). A sample (90 μl) was applied to a column (0.5×4 cm) of Affi-Gel boronate (100 mg, Bio-Rad) which was equilibrated with 0.1 M glycine, pH 9.0, containing 0.1 M NaCl, with or without 10 mM MgCl2, and/or 5 mM DTT, and eluted with five 1-ml portions of the same solution. The total eluate, containing ARH with bound ADP-ribose was collected for liquid scintillation counting.\nAfter incubation of wild-type or mutant ARH3 (1 μM) with [^14C]ADP-ribose (3 μM) (30° C., 16 h) without or with 10 mM MgCl2 and/or 5 mM DTT (total volume 100 μl), unbound ADP-ribose was removed by binding to Affi-gel boronate (Bio-Rad), and ARH3 with ADP-ribose bound, was collected for radioassay. […]"}, "[2]": {"assay": "Poly(ADP-ribose) hydrolysis (autoradiography, high resolution PAGE, HPLC)", "type": "biochemical", "conditions": "[32P]poly(ADP-ribose) or poly(ADP-ribose)PARP; 37° C.; autoradiography / PAGE / HPLC", "procedure": "Poly(ADP-ribose) hydrolysis by autoradiography. [^32P]poly(ADP-ribose)PARP (500 ng of PARP with poly(ADP-ribose) was incubated (37° C., 2 h) with 2 μM ARH in 25 μl of 50 mM potassium phosphate buffer, pH 7.5, with or without 10 mM MgCl2 and/or 5 mM DTT. Reactions were stopped by adding 6 μl of 5× Laemmli buffer. Samples (20 μl) of proteins were separated by SDS-PAGE in 4-20% gels and transferred to nitrocellulose membranes that were exposed to X-ray film (Kodak) for 10 h.\nHydrolysis of poly(ADP-ribose) by PARG and ARH3. Purified [^32P] poly(ADP-ribose) (5.5×10^5 cpm, ˜300 nM ADP-ribose) was incubated for the indicated time at 37° C. in 25 μl of 50 mM potassium phosphate, pH 7.5, containing 10 mM MgCl2 and 5 mM DTT with enzyme or other additions as indicated and terminated by addition of 25 μl of 2× electrophoresis buffer (Invitrogen). [^32P]AMP was generated by incubation (37° C., 3 h) of 10 μM [^32P] NAD (10 μCi/reaction) with pyrophosphatase (40 units/mg from SIGMA, 1 mg/ml) in 25 μl of 50 mM KPO4, pH 7.5, and 10 mM MgCl2. [^32P] ADP-ribose was generated in a 25 μl mixture containing 50 mM KPO4, pH 7.5, 25 μg of activated CTA, 10 μM [^32P] NAD (10 μCi/reaction), 10 mM MgCl2, and 5 mM DTT, which was incubated at 30° C. overnight. [^32P] phosphoribosyl-AMP was generated by incubation (37° C., 3 h) of [^32P]poly(ADP-ribose) (5.5×10^5 cpm, ˜300 nM ADP-ribose) with Crotalus adamanteus phosphodiesterase (10 mU/reaction), 25 μl of 50 mM KPO4, pH 7.5, 10 mM MgCl2, and 5 mM DTT. Identities of AMP and ADP-ribose standards were confirmed by HPLC on C18 and SAX columns respectively.\nHigh resolution Polyacrylamide Gel Electrophoresis (PAGE). Polyacrylamide (20%) gels (20×20×0.15 cm) containing polyacrylamide and bis(acrylamide), in a ratio of 19:1, 100 mM Tris-borate, pH 8.3, 2 mM EDTA, 4.4 mM ammonium persulfate, and 3.4 mM TEMED with electrophoresis carried out for 2 h at 400V with 50 mM Tris-borate, pH 8.3, 1 mM EDTA, before application of samples (15 μl) were used for analysis of poly(ADP-ribose) degradation. Subsequent electrophoresis at 400V was stopped when bromophenol blue (BPB) had moved 9 cm from the origin. Gels were exposed to X-ray films (Kodak).\nHPLC analysis. HPLC, Hewlett-Packard series 1100 equipped with a diode-array spectrophotometric detector set at 254 nm, was used for separation of reaction products. For anion exchange perfusion chromatography, Zorbax SAX column (4.6×250 mm; DuPont, Wilmington Del.) was washed with 20 mM potassium phosphate, pH 4.5, for 30 min, followed by a linear gradient of 0-1M NaCl in the same buffer for 10 min (30-40 min), then same buffer with 1M NaCl for 10 min (40-50 min) at a flow rate of 1 ml/min. Nicotinamide was eluted at 3 min, NAD at 10 min, and ADP-ribose at 40 min. For reverse phase, Discovery C18 column (4.6×250 mm; SUPELCO, Bellefonte Pa.) was used. Samples were separated isocratically with 100 mM potassium phosphate, pH 6.0 containing 7% methanol at a same flow rate of 1 ml/min. ADP-ribose was eluted at 6 min, NAD at 8 min, nicotinamide 9 min.\nPoly(ADP-ribose)PARP was used as substrate to assay potential poly(ADP-ribose) hydrolase activities of recombinant ARH1, 2 or 3. Products were identified by autoradiography and HPLC. Fractions (1 ml) were collected for liquid scintillation counting to quantify [^14C]ADP-ribose, which was eluted in fractions from 34 min to 43 min. Because ARH1 activity may require both DTT and Mg^2+, depending on species (Takada et al. (1993) J. Biol. Chem. 268:17837-17843; Moss et al. (1992) J. Biol. Chem. 267:10481-10488), these reactions were performed with or without 10 mM MgCl2, and/or 5 mM DTT. […] Degradation of [^32P]poly(ADP-ribose) by ARH3 was enhanced by 10 mM MgCl2 (FIG. 4A). Data were similar with mouse ARH3.\nSamples of [^14C] ADP-ribosylated PARP (250 ng, 15,000 cpm, ˜850 nM ADP-ribose) were incubated at 37° C. (total volume, 100 μl) with human ARH3 as indicated. […]"}},
  "note": "“Also recorded” adds a separate entry of the source.",
  "data": [
    {"molecule": "B1", "values": [
      {"measurement": "[14C]ADP-ribose binding", "setting": "[1]", "value": "similar"},
      {"measurement": "Poly(ADP-ribose) hydrolysis (in words)", "setting": "[2]", "value": "inactive; also recorded: No activity"}
    ]}
  ]
}
